This is an account of results in publication doi:10.1101/602425.

This test concerns the target GST-Rac1A, active (GTPγs-bound) (Dictyostelium) (UniProt P34144). As to the kind of experiment: pull-down.

With “GFP-WASP (wild type Dictyostelium WASP) (natural protein)”, the immunoblot quantification of binding (%) turned out to be 1.9%.
